Measured values from paper PMC10042821, “Cryo-EM structure of human eIF5A-DHS complex reveals the molecular basis of hypusination-associated neurodegenerative disorders” (Nature Communications, 2023).

Tests used:
[1] = target: the molecule itself; assay: cryo-EM structure; complex reconstituted from purified eIF5A-1 and DHS K329A (2 mole eIF5A per 1 mole DHS), 200 mM glycine/NaOH pH 9.3, 200 mM NaCl, 1 mM NAD, 1 mM SPD, purified by SEC; 2.8 A
[2] = target: the molecule itself; assay: mass photometry; Refeyn OneMP, final concentration ~1-5 nM; oligomeric state of DHS variants

Protein | stoichiometry N [1] | stoichiometry N [2]
deoxyhypusine synthase K329A, catalytically dead variant, tag-free (enzyme, human, UniProt P49366 1-369, looked up, deoxyhypusine synthase (DHS), Homo sapiens, UniProt P49366, residues 1-369; Tag removal follows the general purification procedure; used for cryo-EM, HDX-MS and crystallography; also called DHS^K329A; source: E. coli, purified (HisTrap, TEV cleavage, reverse HisTrap, SEC); not shown: His6, N-terminal, cleaved) MEGSLEREAPAGALAAVLKHSSTLPPESTQVRGYDFNRGVNYRALLEAFGTTGFQATNFGRAVQQVNAMIEKKLEPLSQDEDQHADLTQSRRPLTSCTIFLGYTSNLISSGIRETIRYLVQHNMVDVLVTTAGGVEEDLIKCLAPTYLGEFSLRGKELRENGINRIGNLLVPNENYCKFEDWLMPILDQMVMEQNTEGVKWTPSKMIARLGKEINNPESVYYWAQKNHIPVFSPALTDGSLGDMIFFHSYKNPGLVLDIVEDLRLINTQAIFAKCTGMIILGGGVVKHHIANANLMRNGADYAVYINTAQEFDGSDSGARPDEAVSWGAIRVDAQPVKVYADASLVFPLLVAETFAQKMDAFMHEKNED | 4 | –
deoxyhypusine synthase N173S, patient-derived variant, tag-free (enzyme, human, UniProt P49366 1-369, looked up, deoxyhypusine synthase (DHS), Homo sapiens, UniProt P49366, residues 1-369, pathological variant N173S; Tag removal follows the general purification procedure; also called DHS^N173S; source: E. coli, purified from the soluble fraction (HisTrap, TEV cleavage, reverse HisTrap, SEC); not shown: His6, N-terminal, cleaved) MEGSLEREAPAGALAAVLKHSSTLPPESTQVRGYDFNRGVNYRALLEAFGTTGFQATNFGRAVQQVNAMIEKKLEPLSQDEDQHADLTQSRRPLTSCTIFLGYTSNLISSGIRETIRYLVQHNMVDVLVTTAGGVEEDLIKCLAPTYLGEFSLRGKELRENGINRIGNLLVPSENYCKFEDWLMPILDQMVMEQNTEGVKWTPSKMIARLGKEINNPESVYYWAQKNHIPVFSPALTDGSLGDMIFFHSYKNPGLVLDIVEDLRLINTQAIFAKCTGMIILGGGVVKHHIANANLMRNGADYAVYINTAQEFDGSDSGARPDEAVSWGKIRVDAQPVKVYADASLVFPLLVAETFAQKMDAFMHEKNED | – | 4
deoxyhypusine synthase delY305_I306, patient-derived variant, tag-free (enzyme, human, UniProt P49366 1-369, looked up, deoxyhypusine synthase (DHS), Homo sapiens, UniProt P49366, residues 1-369, pathological variant lacking Y305 and I306; Tag removal follows the general purification procedure; also called DHS^delY305_I306; DHS^del305Y_306I; source: E. coli, purified from the soluble fraction (HisTrap, TEV cleavage, reverse HisTrap, SEC); not shown: His6, N-terminal, cleaved) MEGSLEREAPAGALAAVLKHSSTLPPESTQVRGYDFNRGVNYRALLEAFGTTGFQATNFGRAVQQVNAMIEKKLEPLSQDEDQHADLTQSRRPLTSCTIFLGYTSNLISSGIRETIRYLVQHNMVDVLVTTAGGVEEDLIKCLAPTYLGEFSLRGKELRENGINRIGNLLVPNENYCKFEDWLMPILDQMVMEQNTEGVKWTPSKMIARLGKEINNPESVYYWAQKNHIPVFSPALTDGSLGDMIFFHSYKNPGLVLDIVEDLRLINTQAIFAKCTGMIILGGGVVKHHIANANLMRNGADYAVNTAQEFDGSDSGARPDEAVSWGKIRVDAQPVKVYADASLVFPLLVAETFAQKMDAFMHEKNED | – | 2
